Measurements published in patent US7128911.

Biological target: T1, C-RANKL protein (RANKL fragment with N-terminal cysteine-containing amino acid linker and hexa-histidine tag, … (mouse, UniProt O35235 137-316))
T1 construct: Coated on ELISA plates at 10 ug/ml
T1 sequence: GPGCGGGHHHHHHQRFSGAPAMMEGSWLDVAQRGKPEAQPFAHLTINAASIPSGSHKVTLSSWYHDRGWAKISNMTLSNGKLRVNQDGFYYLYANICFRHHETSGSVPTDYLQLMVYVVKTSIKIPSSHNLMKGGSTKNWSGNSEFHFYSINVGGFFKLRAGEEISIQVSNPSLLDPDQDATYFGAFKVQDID
Assay: ELISA, plates coated with 10 ug/ml C-RANKL, serial dilutions of RANK-Fc, anti-Fc-HRP detection

B1: purified RANK-Fc fusion protein (Fc fusion)
chain: VTPPCTQERHYEHLGRCCSRCEPGKYLSSKCTPTSDSVCLPCGPDEYLDTWNEEDKCLLHKVCDAGKALVAVDPGNHTAPRRCACTAGYHWNSDCECCRRNTECAPGFGAQHPLQLNKDTVCTPCLLGFFSDVFSSTDKCKPWTNCTLLGKLEAHQGTTESDVVCSSSMTLRRPPKEAQAYLPS
Binder B1 has an EC50 of 1 to 3 nM.
